One experiment relates to UCP1. As to the kind of experiment: High-throughput screen of secreted proteins for UCP1 mRNA induction in committed brown preadipocytes. The experiment is classed as cell-based, murine. Particulars: after induction media; secreted protein library. The procedure: To identify protein(s) that can induce UCP1 expression in brown preadipocytes, a high-throughput screen was performed using a protein library containing more than 5,000 mammalian secreted proteins (Lin H. et al., Science 320:807-811, 2008) in an immortalized murine brown preadipocyte cell line (Klein J. et al., J. Biol. Chem. 274:34795-34802, 1999; Tseng Y. H. et al., Nat. Cell. Biol. 7:601-611, 2005). The screen included applying induction media to brown preadipocyte cells, resulting in committed brown preadipocytes.

The next experiment concerns RIP140 (NRIP1). As to the kind of experiment: RIP140 mRNA expression in brown and white preadipocytes. The experiment is classed as cell-based. The following applies: 200 ng/mL, three or seven days. As for the experimental part:
Total RNA was isolated with QIAzol lysis reagent (Qiagen, Valencia, Calif.) and purified by RNeasy Mini columns (Qiagen) following the manufacture's instructions. cDNA was prepared from total RNA using the Advantage RT-PCR kit (BD Biosciences, Palo Alto, Calif.) according to manufacturer's instructions. Diluted cDNA was used in a PCR reaction with SYBR Green Master Mix (Applied Biosystems, Foster City, Calif.) and primers specifically designed for detection of the gene of interest. PCR reactions were run in duplicate for each sample and quantitated in the ABI Sequence Detection System (Applied Biosystems). Data were expressed as arbitrary units after normalization to levels of expression of internal controls for each sample. Sequences of primers for specific genes are each obtained from the published literature or designed using publically available gene sequence databases. Unless otherwise indicated, gene expression data described in the examples below was obtained using QPCR.
RIP140 directs DNA methylation and interacts with nuclear receptors to silence UCP1 expression and suppress mitochondrial biogenesis in white adipocytes (Kiskinis E. et al., EMBO J. 26:4831-4840, 2007; Powelka A. M. et al., J. Clin. Invest. 116:125-136, 2006; Wang H. et al., Mol. Cell. Biol. 28:2187-2200, 2008). […]

B1: FGF6: fibroblast growth factor 6; recombinant human FGF from R&D Systems, or mouse FGF6 cDNA overexpressed by lentiviral vector (protein)
chain: KRQRRLYCNVGIGFHLQVLPDGRISGTHEENPYSLLEISTVERGVVSLFGVRSALFVAMNSKGRLYATPSFQEECKFRETLLPNNYNAYESDLYQGTYIALSKYGRVKRGSKVSPIMTVTHFLPRI
Turning to B1, in the experiment with UCP1, the “UCP1 mRNA expression in committed brown preadipocytes (screen)” value is reported as “induced UCP1 mRNA expression”. The “reduction of RIP140 mRNA expression” value in the experiment on RIP140 (NRIP1) is 50-80%.
